Experiment: soluble on expression in E. coli; label from the status in PepcDB or PDB records

Sequence | soluble on expression in E. coli
MAQSSAQLLFDESGQPFIVMREQENQKRITGVEAVKSHILAARAVANTLRTSLGPRGLDKMLVSPDGDVTITNDGATIMEKMDVQHHVAKLMVELSKSQDHEIGDGTTGVVVLAGALLEEAEKLIDRGIHPIKIADGFDLACKKALETLDSISDKFPVENRERLVETAQTSLGSKIVNRSLRQFAEIAVDAVLSVADIESKDVNFEMIKMEGKVGGRLEDTILVKGIVIDKTMSHPQMPKELKNAKVAILTCPFEPPKPKTKHKLDITSTEDFKALRDYERETFETMIRQVKESGATLAICQWGFDDEANHLLQANDLPAVRWVGGPEIELLAIATNARIVPRFSELSKEKLGTAGLVREITFGAAKDRMLSIEQCPNNKAVTIFVRGGNKMIIDEAKRALHDALCVIRNLVRDSRIVYGGGSAELAAAIQVAKEADRIDGIEQYAFRAFADALESIPMALAENSGLAPIDALSDLKAKQIETGKSSLGIDAVFAGTNDMKEQKVIETLLSKREQISLATQVVRMILKIDDVRVPDDERMGY | not soluble
MGSDKIHHHHHHMIIIIDEASAKLASFYYHDEIFKPQWKCAADMSSASDELHDEFQEKLQEKLPDELREKLYVVLPADESINDFQKTTIQESADNTAKANTGNLRIPKAPTDCIWIVSDRQQKQIADSLGIASVGEPQCGTRYAVESLAELDIEYLERVRRRYNHIPWDIGETDRCLIRELSLADLPALYELYDKPGMTDFVEPLYDYETELEYQKAYIENMYDFYEYGMWLVFSKETGKLIGRAGLEHNEMGYMIAPEFQNLGYATEVCRFIVDYARKNTDFEELYCRIDEKNVASVRLAKRLGFVRNGQIGNERNTGGLDRYVLSI | not soluble
MSLNDGRLEIFQEGKPGRRIDEDQVFAAVLDALTKPAEQRTVTVAFREIPPPITAANLDQLGITTLIGVGRSDFTGSAAYRVTNIQAGMRLLHGVLIAPGEEFSFNQTIGRIDRSNGFVEGYAIIQNRTQLEWGGGICQDSTTMFRAAFWAGLPITERWGHSFYISWYDRYAFGPYGDGPGMDATIFTGGPDLKFLNDTGGWLLIQTLVDTHRHLAEVRLYGPDTGRKVLLEGPIITNRTPPPEEPVYVASPDRPVGQPRQSDTARGGMDILFTRIVLGPDGKEIERRQFVTRFKPWPNIFEYNPADEGHHHHHH | soluble
MSLQNTLGHRLVVGERQLLRFPAQQRSAAGDRLHAPSVYRRACIASLRSRQACYRHARRRCRQQEGAAMTGINRRELLRGMLASGVRAALPAGAAGALLPGSADAAPAAAKDATPLAPLGDASLAPRERLLFDFGWRFHPGHASDPSRDFEFGTFQRTFAKAGKDTATAAQLAFDDSNWQQVDLPHDWAVTLPFRPEPISASMTEEDPAAAHGYKALGTSFPENSVGWYRRMLQIPASDLGKRICLVFDGVFRDCVVFCNGHIVGRNASGYCGFEVDLSEVLDYGKPNLIVVRVDATLGEGWFYEGAGIYRHLWLQKTDPLHVPQHGVFVRSSVQGDTATAQLSTEVRNDGTASRQCVVQARITAPYGRIVAQAASAAVTVAPGQVQVVEQTVPLGQAALWSIDTPQLYTLTTSVHSAGVAVDALVTPFGVRSIAFDAQRGFLLNGAPLKLHGTNNHQDHAGVGTAIPDALHAWRLRQLKSMGCNAYRSSHNPATPELLALCDRLGMFVIEETRRMSTDPEAMAELETMVRRGRNHPSVILWSLGNEEPQQVTERGARIVTRMQQRVRQLDPTRPTTFAMDKGFGDGVGQVVDVVGFNYRTSQMDGFHAQYPNIPIYGSETGSTVSVRGNYQRDDTRGYTRAYDTDHPWWASTAEAWWSYVAQRPYIAGGFIWTGFDYRGEPTPYNRWPNVGSQFGVLDSCGFPKDNYWYYRAQWTSEPVLHLFPHWNWDGLLQPDDKGRVEVWCHSNLEAVELLVNGVSQGLQQVPAYGHVEWRVAYAPGVIEARGYRGGKLVLTERRETVGKPAAIRLSCDRSALRADAEDVAVVKVEIVDAQGRLVPNADHLVHLVLRGPARLIGVGNGDPSSHEDDKAPQRKAFNGLCMALLRSTRSSGQILLQATAPGLTSAALHLQAATSAEGHHHHHH | soluble
MERETPKTPTPTPYTNIYAALNNKKTNDEVASKVTEELNKLKIAEEKDNKIVSREKPEMMSLNTLVEMCSAGEKPTKGKSEKDIRKKKAPVLVDDNQSYVMIGPPSEPVEPPATLSTETSKTNAIEESTVKRSEALSAYIGVATLNDAENHLTRRGEFALYHLFNPNGRLDTITEKLPLMIVYRTTTKKNRHYSIRTTCDQQFFVDCGYPNVRKHYSLNHLVKFYKVRILLPDTIQKQQLTDILQILKQFQTSATCEINPYDTSADSFSWWLE | soluble
MALVQALVPREREPKLSILQMDRGDPQHSSHWCPEREKVKLLTLKPRETSKNILINFYRAFNLDKDVFIHQANHPLTVPSSVVMGDNGHTLAEDDKRPCFRVLPCYLERVSSGISISWISAPLPVGAMKHQLLCDLMDLITLSFWLAGQCMSLKATNMQHCKCSIATSDWAIELDRTDYKTLPSEYSILALLQVFAGKNCMDRVLLHVDVNYLKSLP | soluble
MAGSTLTVKDLHVSIDGKEILKGVNLEVKGGEIHAIMGPNGTGKSTLSSAIMGHPKYEVTEGSIIIDGEDVLEMEVDERAQAGLFLAMQYPSEISGVTNADFLRSAINARREEGDEISLMKFIRKLDKNMEFLEMDPEMAQRYLNEGFSGGEKKRNEILQLMMIEPKIAILDEIDSGLDIDALKVVSKGINEMRGEEFGCLMITHYQRLLNYITPDFVHVMMNGRIVKSGGPELAQRLEAEGYDWIKKELGIEDETTEQEA | not soluble
MGHHHHHHSHMHTPEVASPSPGDRCREKSSPRPQTRFPSWHRVGDGWRVSIGTARSGCCQVGPCQGSSPLSTLCLAVPAPRYSNMACTQQSGGTTMVTADAPRLCLVNVAEQNGRLDPEEGPLSWHLSLAT | not soluble
MIDEPTGLYNRLRLQEDVSLRLQRDGALTVIAADLLPLALLNTIIRTLGYPFSNDLMLEARDRIRAELPDFTLYKISPTRFGLLLPRQQQEETESVCLRLLRAFESPVVCRGIPIKANVGLGVLPLADDTLDGDQDWLRLVVSAADDARDRGVGWARYNPPLDQAQQRLEHHHHHH | soluble
MPGAPSFIALDWGTSSLRAWRFGESPNPQEKREFPWGIMKLPSQAATREDAFHDTFLRVCGDWLAQTPCPVLACGMLGSAQGWQSAAYLPCPVTLEGLAKQLTPVIHQQQTMLHIIPGVIKEGEMPEVMRGEETQIFGAISMEPALQNAIHQGMPVLIGLPGTHAKWAVVENNTITDFRTFMTGELFDVLSRHSILGATMHPGDEPHWDAFTHGLTAAQEHHQTGLLSTLFSTRSRLLTSNLTSSSQGDYLSGLLIGHELCGLASSLLRDLPATTPIALIGSANLNSRYSQAFSHVFPGRQIHAIPNATEQGLWRIAHAAGLLSTNARECTHAI | not soluble
MAKKMKLSDITNMFAGMDVEALEGVTIEGDIEIDLGGLGGGFDPMLAAALGQESAVLAQHFARIAGMFGYPVGIGAPAAPAISPALAAPKLKDLIPAKFDVANIAEWATQIQEVPIGNTSADGGSRGKRVLVGGEKALPFFPDAPMPNRNQVTIDVFDMRIGLAKAVKENYDEVMDSPGEWAKKNVEKFNADMITIHLISTDPLVKDTPPKEAAKTVEEVLQAVDVPIAIGGSGNPQKDPEVLARAAEVAEGERCLLASASLNLDYAAIAEAALKYDHDVLSWTQLDMNAQKELNRKLMKQCNVPRDRIIMDPTTAALGYGLDYAYTNMERIRLAALMGDDELTFPMSSGTTNAWGARESWMVGSPLKEDSDWGPREYRGPIWEIVTGLSLAIAGNDLFMMMHPTSVAVLKQITQTLFGTIDTEQVDIANWIGAEV | not soluble
MSYLLALDAGTGSIRAVIFDLNGRQLAVGQAEWKHLSVDNVPGSMEFDLTTNWQLACQCIRQALDAARLSAADIQSVACCSMREGIVLYDRNGEAIWACANVDARASREVAELKEIHDFRFESEVYEVSGQTLALSAMPRLLWLAHHRPDIYRKAATITMISDWLAAKLSGELAVDPSNAGTTGMLDLFSRDWRPALLDMAGLRADMLSPVKETGTLLGAVTEAAAQQSGLRAGTPVVMGGGD | not soluble
MDFGALPPEINSTRMYAGAGAAPLMAAGATWNGLAVELSTTASSVESVIMQLTTEQWLGPASMSMVVAAQPYLAWLTYTAESAAHAAAQAMASAAAFEAAFAMTVPPAEVAANRALLAALVATNVLGQNTPAIMATEAHYGEMWAQDALAMYGYAASSAAAGRLNPLITPSQTANMAGLAGQAAAVSHAAAASTVQQVGLGSLISNLPNAVMGFASPLTSAADAAGLGGIIQDIEELLGITFVQNAINGAVNTTAWFVMATIPNAVFLGHAFAALNPATVTAAADAVPAAAAAAGLAHTVTPVGVGGASLTASLGEASSVGGLSVPAGWSTAAPAMTSGTTALEGSGWAVPEEAGPVAAMPGMAGISGAAKGAGAYAGPRYGFKPIVMPKQVVV | not soluble
EPEEVIPSRLDIRVGKIITVEKHPDADSLYVEKIDVGEAEPRTVVSGLVQFVPKEELQDRLVVVLCNLKPQKMRGVESQGMLLCASIEGINRQVEPLDPPAGSAPGEHVFVKGYEKGQPDEELKPKKKVFEKLQADFKISEECIAQWKQTNFMTKLGSISCKSLKGGNISLE | soluble
MGSDKIHHHHHHMIDITDKQSCCGCSSCVQKCPRQCISLHEDTEGFLYPVVDKGDCIDCGLCEKVCPLLHWGEALVPMEVLAVKNKNQEERIHSSSGGVFIALSRQIIMDGGVVFGAVYDENWEVRITYSETLDGVRPMMGSKYLQARVETGFADAERFLKQGRYVLFSGTPCQIAGLHKYLRKDYPNLLSVDFLCHGVPSPGVWRRYLKETMSDLQSARRAAAGKNTVFPSLNVMPTIVGIEFRDKTLHGWKKYSFVVRGKSAFNADKNSVLLSDIHRENPFMRGFLSDIYLRPSCYECKCKNGVSHSDLTIADFWGIDRLMPDFDDDKGIGLALVNTVKGKQIFKRLSIDIRLSALSDVVALNGGFKEYRQPHPARLVFFRRFAVGETVESIVEDILRVPLWRRVMRNIKTFCKMIINRKQLTIIPLFIRRSKKRDK | not soluble
MPSFREDALSRIRHDGDFDAVVIGGGINGIAAYRDLALQGLRVLLVERNDFSSGCSAAPSRMIHGGLRYLENGEFGLVAESLRERDALLTLAPHMVQPLPTTIPIFSMFSGLFNAAATFFGSGGKPASRGALAIKAGLTLYDFVTRKNRLLPRHEFRGAGKTLKRWPGLTPDIRYSATYYDAWISQPERLALELLIDTSADAPQSIALNYAELVRNGDEYHIRAEETDETLPIRPRIIVNATGAWIDETIGTLSAGPAAEKQKPTVSGTKGSHLIIANDGLLKALNGHMIFFENADNRVCILFPYLGRVLAGSTDIKVDRPERVRCEPDERDYILDAIRQVFPDITVDHSDIVFSFSGIRPLPRSDAAFTGRISRSHFIHRVAGDPPQLCMIGGKWTTFRAFGEQVSDEVLAFLGRKRLTGTMNRPIGGGRNFPTGAGRLPALLSEQFSIDRRRAQHLALAYGSRAFELMGFCRGRPDDAPLSQKSPITAAEILWLIRCEHVRHLTDLILRRTTLAIAGLIDADLIDAILGVAARELGWTPTRAAVERQQLTQELETFYGVTPAMLQNRCKENALEHHHHHH | soluble
MGHHHHHHSHMRKNESYLNQPAPPIPIPTLSLMGGCREHFENHWKGRARWLMPVIPALWEAKAGRSPEVRSSKPAWPTWRNPIFTKNTKISQVLELFLNYQSLICALEKQKRQKGSLAIFCWSFQGGCVSKRPDVPSLKSQKPKRKRITGRKRLSKGFWSLLFSNLGRF | not soluble
IEPEFIGNENYKNLIVSWGTTYYPIKDALEELNLKDTAFIHFSQIYPISESGEKYLKKAEKVVNIELNYTGQLGRLLKREFGIEMNDSILKYDGRVFSVEELSEKIKKVLRG | not soluble
MSISFEKLRITLKSVGVPVTRDKAEKGTDYPYIVYSNVSQGKKMASSKVHRRMPYYQISFYTTGTEKDLIALENALEEAGIPYTDFVGIQGDENDDTVTNFYTYVRCIEDGK | soluble
GSLILDGDLLKDKLKLPVIDNLFGKELLDKFQDDIKDKYGVDTKDLKILKTSEDKRFYYVSVDAGDGEKCKFKIRKDVDVPKMVGRKCRKDDDDDDGY | soluble

From the DeepSol protein solubility set
